Data set [1] concerns the target Φ11 dUTPase, dUTPase enzyme from the Φ11 Staphylococcal phage (Staphylococcal phage Φ11). Nature of the data set: inhibition of enzyme activity (steady-state dUTPase kinetics); 20 nM Φ11 dUTPase, 1 mM HEPES-HCl pH 7.5, 5 mM MgCl2, 150 mM KCl, phenol red, 293 K; the two proteins preincubated 5 min; quadratic binding equation fitted; apparent Ki.
Data set [2] shares this target.
Data set [3] shares this target. This is another data set of the same source.
Another data set concerns the target Stl-CTD (Staphylococcus aureus pathogenicity …, UniProt Q9F0J8 85-267). Nature of the data set: EMSA; no shift at 2-30 uM Stl-CTD (monomer). The following applies: protein: recombinant; tags: N-terminal GST removed by thrombin (pGEX-4T-1); label: none (GelRed stain); blunt.
In data set [4] the target is Stl (SaPIbov1 repressor), wild type (Staphylococcus aureus pathogenicity …, UniProt Q9F0J8). Nature of the data set: EMSA; shift at 1 uM Stl (monomer). To be noted: protein: recombinant; tags: N-terminal GST removed by thrombin (pGEX-4T-1); chain copies: 2; label: none (GelRed stain); blunt. In general terms: Mobility shift assays separate free from complexed probe on a gel.

Regarding “Stl-CTD, carboxy-terminal domain of the SaPIbov1 pathogenicity island repressor Stl (domain or fragment)”, the Ki in data set [1] turned out to be 1.5 nM. Also, in data set [2], the maximum inhibition of Φ11 dUTPase activity at saturating Stl-CTD concentration was determined as 40%.

In turn, “Stl-Q40A,N41A double mutant of the SaPIbov1 repressor Stl (natural protein)” gave a maximal inhibition of Φ11 dUTPase activity by Stl-AA in data set [3] of over 90%. For the same molecule, in data set [1], the Ki was determined as 1.4 nM.

B1: 57mer Stl-binding dsDNA (dsDNA)
DNA 1: GCTCATATTATTCCTCTCCTACCATTTTATCTCTAATTGAGATATTTATATTCAGAT
DNA 2: ATCTGAATATAAATATCTCAATTAGAGATAAAATGGTAGGAGAGGAATAATATGAGC
Turning to B1, the binding result is given as “no binding” with Stl-CTD and “binds” in data set [4].
